Test results published in patent publication US9969998B2, “Compositions of adenosine deaminase-2 (ADA2), variants thereof and methods of using same” (Halozyme, Inc., priority 2014, dated 2018).
Changes are numbered by the printed parent chain. Names may count otherwise.

B1: ADA2: wild-type human adenosine deaminase 2, mature form SEQ ID NO:5, homodimer (protein, listed as Homo sapiens)
chain: IDETRAHLLLKEKMMRLGGRLVLNTKEELANERLMTLKIAEMKEAMRTLIFPPSMHFFQAKHLIERSQVFNILRMMPKGAALHLHDIGIVTMDWLVRNVTYRPHCHICFTPRGIMQFRFAHPTPRPSEKCSKWILLEDYRKRVQNVTEFDDSLLRNFTLVTQHPEVIYTNQNVVWSKFETIFFTISGLIHYAPVFRDYVFRSMQEFYEDNVLYMEIRARLLPVYELSGEHHDEEWSVKTYQEVAQKFVETHPEFIGIKIIYSDHRSKDVAVIAESIRMAMGLRIKFPTVVAGFDLVGHEDTGHSLHDYKEALMIPAKDGVKLPYFFHAGETDWQGTSIDRNILDALMLNTTRIGHGFALSKHPAVRTYSWKKDIPIEVCPISNQVLKLVSDLRNHPVATLMATGHPMVISSDDPAMFGAKGLSYDFYEVFMGIGGMKADLRTLKQLAMNSIKYSTLLESEKNTFMEIWKKRWDKFIADVATK
modifications: ADA2 mature protein
B2: PEG-K374D: rHuADA2-K374D (SEQ ID NO:20) PEGylated on surface exposed lysines with linear PEG-20K (conjugate)
chain: B1 chain with K371D
modifications: linear PEG-20K on surface lysines; human ADA2 K371D, mature numbering

What was measured:
[1] = Adenosine deaminase (ADA) activity assay; format: biochemical
From the text: The adenosine deaminase (ADA; EC 3.5.4.4) activity of any of the ADA2 described herein, including a wildtype, variant or conjugate, can be assessed using methods well known in the art. ADA activity assays commonly measure, directly or indirectly, the rate of production a product of the enzymatic reaction. For example, the production of inosine or ammonia can be directly or indirectly measured. In other examples, the decrease of the substrate of the enzyme, e.g., adenosine or 2-deoxyadenosine, is measured. The decrease of the substrate, or the increase of the product, can be measured directly by spectrophotometry, or indirectly, by subsequent enzymatic or oxidation-reduction reactions that use chromogenic substrates or change the absorbance spectra of the reaction.
For example, some commercially available adenosine deaminase (ADA) assays, such as ADA assay kits available from BQ Kits (San Diego, Calif.; Cat. No. BQ014EALD) and Diazyme (Poway, C A; Cat. No. DZ117A-K), utilize colorimetric substrate and spectrophotometric reading to determine the conversion of adenosine to inosine by ADA enzymes. In these assays, the production of inosine is detected by multi-step enzymatic reactions that produce a chromogenic dye. […] The change in absorbance at 556 nm (ΔA556) over time, at 37° C., is measured. […]

[2] = 24 hours, 37° C.
CT26 syngeneic tumors = assay: Tumor growth inhibition of combination therapy with anti-PD-1 and anti-CTLA4, CT26 peritibial tumor model; format: in vivo, Balb/C mice; settings: study day 10
Procedure: The murine CT26 syngeneic tumor model was used to compare the antitumor activity of combination therapy using PEGylated ADA2 with checkpoint inhibitors anti-PD-1 and anti-CTLA4 antibodies. CT26 syngeneic tumors were produced by injecting 2×10^5 CT26 cells in 0.05 mL injection volume per animal into the right peritibial muscle of male Balb/C mice. Tumor bearing mice were staged into treatment groups when the average tumor size reached 150 mm^3.
For treatment, animals were randomized into 8 groups (n=8/group) as follows: 1) saline vehicle control, 2) PEG-ADA2-K374D, 3) α-CTLA4 antibody (Clone 9D9, Cat. No. BE0164; BioXCell, West Lebanon, N.H., 4) α-PD-1 antibody (Clone RMP1-14, Cat. No. BE0146; BioXCell, West Lebanon, N.H.), 5) PEG-ADA2-K374D+α-CTLA4; 6) PEG-K374D+α-PD-1; 7) α-CTLA4+α-PD-1, or 8) Triple combo (PEG-ADA2-K374D+α-CTLA4+α-PD-1). PEG-ADA2-K374D was dosed intravenously 3× weekly at 10 mg/kg, α-CTLA4 was dosed intraperiotoneally biweekly at 4 mg/kg, and α-PD-1 was dosed intraperitoneally biweekly at 4 mg/kg. The sequence of dosing in the combination groups was as follows: PEG-ADA2-K374D followed by α-CTLA4 followed by α-PD-1.
Tumor volume was assessed twice weekly via ultrasound imaging using the Vevo2100 (Visual Sonics, Toronto, Canada) to determine tumor growth inhibition (TGI). Animals were anesthetized using light isoflurane anesthesia while the tumor volumes were measured. For tumor measurement, the region of interest was covered in ultrasound gel (Parker Laboratories, Fairfield, N.J.), and the RMV-716 (focal depth=17.5 mm) scan head was positioned directly over the region of interest. While in 2D-Mode, the approximate center of the tumor was located, and subsequently an image (˜150-200 frames) was captured using 3D-mode. Approximately 15-30 frames out of 150-200 frames were analyzed and a tumor volume calculated and expressed in mm^3. Tumor growth Inhibition (TGI) was calculated as described above.

Row | Molecule | Km of ADA2 for adenosine relative to that of ADA1 [1] | activity retained in PBS/BSA control [2] | activity retained after treatment with plasma ([2]; mouse plasma) | Average Group Tumor Volume, SD10 (CT26 syngeneic tumors; PEG-ADA2-K374D 10 mg/kg IV 3x weekly, α-CTLA4 4 mg/kg IP biweekly, α-PD-1 4 mg/kg IP biweekly, ultrasound) | Tumor Growth Inhibition (CT26 syngeneic tumors; PEG-ADA2-K374D 10 mg/kg IV 3x weekly, α-CTLA4 4 mg/kg IP, α-PD-1 4 mg/kg IP biweekly) | TGI (CT26 syngeneic tumors; compared to vehicle control) | Volume Range (CT26 syngeneic tumors; range of tumor volume of all animals in the group)
1 | B1 | approximately 100 times | no change in activity | about 65% |  |  |  | 
2 | B2 |  |  |  | 1499.11 mm^3 | exhibited tumor growth inhibition activity | 5% | 1213-1594 mm^3
